This data set deals with the molecule itself. As to the kind of experiment: X-ray crystal structure of the TREX1 D18N-dsDNA complex (homodimer of protomers). How it is done:
Structure Determination. The mouse recombinant Trex1 enzyme (amino acids 1-242) was prepared and crystallized with a dsDNA oligonucleotide. The X-ray data were collected and processed as described further below.
Protein Crystallization and X-ray Data Collection. The TREX1 D18N mutant was crystallized using the sitting drop vapor diffusion technique. The protein was dialyzed in 20 mM MES (pH 6.5), 50 mM NaCl and concentrated to 10 mg/mL. The pseudo-palindromic oligonucleotide DNA used for crystallization (5′-[…]-3′ (SEQ ID NO:1, Operon)) was self-annealed in buffer consisting of 20 mM NaCl, 5 mM MgCl₂, and 5 mM MES, pH 6.5. The complex was formed by incubating dsDNA with the protein in a 1:1 ratio and 5 mM magnesium chloride. A volume of 1 μl protein complex at 4 mg/ml TREX1 was mixed with an equal volume of reservoir solution and placed on a bridge above 500 μl of the reservoir solution. Optimized crystals of the TREX1 D18N mutant grew in 0.1 M sodium acetate and 9% PEG 4000 at 25° C. Prior to data collection all crystals were immersed in reservoir solution containing 10% oil (1:1 mineral oil and pantone-N) in preparation for cryo-cooling. Crystals were mounted on a nylon loop and flash cooled to 100 K in a stream of liquid nitrogen.

B1: mouse recombinant TREX1 D18N enzyme (amino acids 1-242) (enzyme, Mus musculus, UniProt Q91XB0 1-242, looked up)
chain: MGSQTLPHGHMQTLIFLNLEATGLPSSRPEVTELCLLAVHRRALENTSISQGHPPPVPRPPRVVDKLSLCIAPGKACSPGASEITGLSKAELEVQGRQRFDDNLAILLRAFLQRQPQPCCLVAHNGDRYDFPLLQTELARLSTPSPLDGTFCVDSIAALKALEQASSPSGNGSRKSYSLGSIYTRLYWQAPTDSHTAEGDVLTLLSICQWKPQALLQWVDEHARPFSTVKPMYGTPATTGTT
notes: range 1-242; Written as one protomer, because the entry is the protomer-protomer association; also called TREX1 D18N mutant; TREX1 D18N protomer
With B1, the binding result is on record as “binds”.

Source of the values: patent US20190021294A1 (WAKE FOREST UNIVERSITY HEALTH SCIENCES, published 2019).
